Blank lines part the entries; values can stand above or below the molecule they belong to. Positions of bridges follow the written chain, without caps; N, C: chain ends. No end group written: not given here.
How the values were obtained:
[1] = target: human β-klotho (human) (UniProt Q86Z14); assay: cell-based or functional assay
[2] = target: β-klotho of differentiated 3T3-L1 adipocytes (mouse) (UniProt Q99N32); assay: cell-based or functional assay
[3] = target: Amylin receptor (chimpanzee; human, UniProt O60896 24-148); assay: cell-based or functional assay
[4] = target: T1, human serum albumin (human, UniProt P02768 25-609); assay: comment in the summary table; Biacore at lowered pH; target not given, HSA by paragraph 278
T1 construct: mature; Purified or recombinant albumin from suppliers; also called HSA; HuSA

[5] = target: T1, human serum albumin; assay: isothermal titration calorimetry (refers to FIG. 11)
Experimental: SABA-FGF21 fusion protein plus buffer was placed in the instrument sample cell at a concentration range of 0.4 to 1.0 mg/mL protein. The matching buffer was placed in the reference cell. Concentrations were determined using extinction coefficients calculated from the protein sequences of the pure proteins. The instrument reaction cell was equilibrated at 37° C. […] The resultant thermogram data was fitted using Origin™ evaluation software package (Microcal Inc.) version 2.0.2 to estimate the stochiometry, enthalpy, and equilibrium disassociation constant (K_D) of the protein-protein binding reaction.

Amylin receptor, sequence (O60896 24-148): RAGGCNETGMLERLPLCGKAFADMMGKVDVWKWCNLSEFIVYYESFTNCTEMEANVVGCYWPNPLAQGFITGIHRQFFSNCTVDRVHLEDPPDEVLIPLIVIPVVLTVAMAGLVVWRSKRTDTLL
β-klotho of differentiated 3T3-L1 adipocytes (mouse), sequence (Q99N32 whole entry): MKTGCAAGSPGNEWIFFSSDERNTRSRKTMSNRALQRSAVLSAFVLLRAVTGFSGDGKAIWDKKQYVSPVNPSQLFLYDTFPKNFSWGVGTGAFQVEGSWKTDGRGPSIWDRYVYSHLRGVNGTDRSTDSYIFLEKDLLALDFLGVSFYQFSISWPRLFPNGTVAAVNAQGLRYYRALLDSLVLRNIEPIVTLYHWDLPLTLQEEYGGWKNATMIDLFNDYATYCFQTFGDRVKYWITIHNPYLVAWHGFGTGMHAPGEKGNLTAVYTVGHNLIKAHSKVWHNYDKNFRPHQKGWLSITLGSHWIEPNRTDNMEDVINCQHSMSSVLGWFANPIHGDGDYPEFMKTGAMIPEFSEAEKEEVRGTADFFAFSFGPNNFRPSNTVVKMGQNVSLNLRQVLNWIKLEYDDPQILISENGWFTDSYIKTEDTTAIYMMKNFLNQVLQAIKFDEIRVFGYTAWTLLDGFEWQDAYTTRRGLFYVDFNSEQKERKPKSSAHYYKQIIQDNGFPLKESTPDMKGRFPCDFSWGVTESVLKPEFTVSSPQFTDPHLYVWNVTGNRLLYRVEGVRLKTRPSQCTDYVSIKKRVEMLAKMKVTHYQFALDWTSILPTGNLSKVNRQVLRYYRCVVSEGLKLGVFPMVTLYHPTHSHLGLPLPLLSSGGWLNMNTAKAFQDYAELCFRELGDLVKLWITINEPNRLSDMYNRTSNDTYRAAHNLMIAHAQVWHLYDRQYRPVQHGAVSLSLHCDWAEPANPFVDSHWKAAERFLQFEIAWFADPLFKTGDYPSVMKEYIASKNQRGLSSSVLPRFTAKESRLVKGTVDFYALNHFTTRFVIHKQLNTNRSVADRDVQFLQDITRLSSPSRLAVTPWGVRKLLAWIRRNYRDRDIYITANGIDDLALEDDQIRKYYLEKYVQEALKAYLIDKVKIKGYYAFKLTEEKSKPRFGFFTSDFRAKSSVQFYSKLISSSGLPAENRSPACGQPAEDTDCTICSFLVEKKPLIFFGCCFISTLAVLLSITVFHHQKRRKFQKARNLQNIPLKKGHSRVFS

Molecule: His-tagged FGF21 (from UniProt Q9NSA1 29-209) (ligand)
EC50 (potency), pERK 1/2 in HEK β-Klotho expressing stable cells [1]: 7 nM
Efficacy (% of His6-tagged FGF21 maximal activity), pERK 1/2 in HEK β-Klotho expressing stable cells [1]: 100%
EC50, pERK 1/2 in 3T3-L1 adipocytes [2]: 4 nM
Fold Activation, pERK 1/2 in 3T3-L1 adipocytes [2]: 2.1 fold

B1: SABA1.7-(ED)5G-Cys-PEG20-Amylin-CONH2 (designed binder)
chain: MGVSDVPRDLEVVAATPTSLLISWHSYYEQNSYYRITYGETGGNSPVQEFTVPYSQTTATISGLKPGVDYTITVYAVYGSKYYYPISINYRTEIEDEDEDEDEDGC
modifications: Maleimide-PEG20 spacer (X1) between the Cys after (ED)5G and the amylin peptide; disulfide bridge between the two Cys of the amylin part; C-terminal amidation
Cell based Potency (EC50), cellular cAMP assay [3]: 12.2 nM
Efficacy (% of native peptide ligand maximal activity), cellular cAMP assay [3]: 119%

B2: SABA4.1 (designed binder)
chain: MGVSDVPRDLEMVAATPTSLLISWEDDSYYSRYYRITYGETGGNSPVQEFTVPSDLYTATISGLKPGVDYTITVYAVTYDVTDLIMHEPISINYRTEIDKPSQHHHHHH
notes: Core 4 Adnectin (carries a scaffold mutation) with AdNT1, AdCT1 and His6
fold decrease in KD at pH < 6.0 [4]: > 2 fold

B3: SABA5.1 (designed binder)
chain: MGVSDVPRDLEVVAATPTSLLISWEDDSYYSRYYRITYGETGGNSPVQEFTVPSDLYTATISGLKPGVDYTITVYAVTYDVTDLIMHEPISINYRTEIDKPSQHHHHHH
notes: Scaffold-perfect version of SABA4 with the same BC, DE and FG loops; AdNT1, AdCT1 and His6
fold decrease in KD at pH < 6.0 [4]: > 2 fold

Next, values leading:

Efficacy (% of native peptide ligand maximal activity), cellular cAMP assay [3]: 100%
Molecule: KCNTATCATQRLANFLVRSSNNLGPVLPPTNVGSNTY-NH2 (disulfide 2-7) [Amylin Control Peptide]

Kd [5]: ~4 nM
B4: SABA1-FGF21v1 (designed binder)
chain: MGVSDVPRDLEVVAATPTSLLISWHSYYEQNSYYRITYGETGGNSPVQEFTVPYSQTTATISGLKPGVDYTITVYAVYGSKYYYPISINYRTEIEKPSQGSGSGSGSGSGSGSPIPDSSPLLQFGGQVRQRYLYTDDAQQTEAHLEIREDGTVGGAADQSPESLLQLKALKPGVIQILGVKTSRFLCQRPDGALYGSLHFDPEACSFRELLLEDGYNVYQSEAHGLPLHLPGNKSPHRDPAPRGPARFLPLPGLPPALPEPPGILAPQPPDVGSSDPLSMVGPSQGRSPSYAS
notes: Single-chain fusion: SABA core 1 with AdNT1 leader and AdCT7 tail, (GS)7 linker, FGF21 core with FNT3 leader and C-terminal S; also called SABA-FGF21v1 fusion; FGF21-SABA fusion
